Consider three molecules from article PMC6680207, “ZmpTAC12 binds single‐stranded nucleic acids and is essential for accumulation of the plastid‐encoded polymerase complex in maize”.

Data set [1] deals with T1, rMBP-pTAC12 (ZmpTAC12) (Zea mays, UniProt B4FZ81 72-555).
T1 sequence: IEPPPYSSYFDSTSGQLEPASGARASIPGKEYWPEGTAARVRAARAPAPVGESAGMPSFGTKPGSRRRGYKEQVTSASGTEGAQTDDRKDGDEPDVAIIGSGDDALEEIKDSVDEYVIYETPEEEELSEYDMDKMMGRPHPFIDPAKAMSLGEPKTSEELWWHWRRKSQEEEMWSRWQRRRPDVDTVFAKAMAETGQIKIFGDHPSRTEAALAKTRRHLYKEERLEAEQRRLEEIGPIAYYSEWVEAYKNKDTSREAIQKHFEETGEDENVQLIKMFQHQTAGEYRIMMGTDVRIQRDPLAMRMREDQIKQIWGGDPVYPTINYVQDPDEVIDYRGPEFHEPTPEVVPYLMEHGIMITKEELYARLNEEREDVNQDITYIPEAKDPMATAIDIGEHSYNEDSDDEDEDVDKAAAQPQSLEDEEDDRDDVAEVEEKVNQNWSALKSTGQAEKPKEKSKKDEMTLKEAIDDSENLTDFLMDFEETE
The data set is described as follows: EMSA; 1 ug/ul heparin; c. 100 pM probe; EMSA; 1 ug/ul heparin (ssRNA assays), c. 100 pM radiolabeled 50mer; buffer, salt, pH and temperature not in the material. The following applies: protein: recombinant; tags: N-terminal MBP fusion; label: radiolabeled. For orientation: A gel shift assay detects complexes by their altered migration in electrophoresis.

Data set [2] has as its target T1, rMBP-pTAC12 (ZmpTAC12). The data set is described as follows: EMSA; c. 100 pM probe; EMSA; 1 ug/ul heparin (ssRNA assays), c. 100 pM radiolabeled 50mer; buffer, salt, pH and temperature not in the material. The following applies: protein: recombinant; tags: N-terminal MBP fusion; label: 5' end radiolabel (T4 PNK).
Data set [3] concerns the target T1, rMBP-pTAC12 (ZmpTAC12). Kind of data set: EMSA; 100 pM dsDNA; EMSA; 1 ug/ul heparin (ssRNA assays), c. 100 pM radiolabeled 50mer; buffer, salt, pH and temperature not in the material. The following applies: protein: recombinant; tags: N-terminal MBP fusion; label: 5' end radiolabel (T4 PNK); blunt.

B1: psaAB-150 ssRNA (ssRNA)
RNA: GGUAAUUGCUCCAGUGAAUAACUAAAAAAAAAAAUAGAAGGACGGUAGAUAG
Take B1: the binding result with rMBP-pTAC12 (ZmpTAC12) [1] is given as “binds”.

Take TAATTGCTCCAGTGAATAACTAAAAAAAAAAATAGAAGGACGGTAGATAG (ssDNA) [psaAB-150 ssDNA]: in the data set with rMBP-pTAC12 (ZmpTAC12) [2], the binding result is reported as “binds”.

B2: psaAB-150 dsDNA (dsDNA)
DNA 1: TAATTGCTCCAGTGAATAACTAAAAAAAAAAATAGAAGGACGGTAGATAG
DNA 2: CTATCTACCGTCCTTCTATTTTTTTTTTTAGTTATTCACTGGAGCAATTA
In the case of B2, in the data set with rMBP-pTAC12 (ZmpTAC12) [3], the binding result is on record as “no binding”.
